Source: patent publication US20170037129A1

Experiments:
[1] = molecular target: endogenous human CD147 expressed on human cancer cells (human) (UniProt P35613); experiment: flow cytometry on A549 cells
[2] = molecular target: endogenous human CD147 expressed on human cancer cells (human) (UniProt P35613); experiment: flow cytometry on PC-3 cells
[3] = molecular target: endogenous human CD147 expressed on human cancer cells (human) (UniProt P35613); experiment: flow cytometry on K562 cells

| EC50 [1] [nM] | EC50 [2] [nM] | EC50 [3] [nM] | Binder |
| --- | --- | --- | --- |
| 35.9 | > 100 | 0.6 | C4sh1A6 (antibody, V domains shown) VH: QVQLVESGGGVVQPGRSLRLSCAASGFTFSTYAMHWVRQAPGRGLEWVAGISYDGSNKYHADPVKGRFTISRDNSKNTLYLQMNNLRVEDSAVYYCAGDRSGGLDVWGQGTTVTVSS VL: DIVMTQSPSSLSASVGDRVTITCRASQGISNSLAWYQQKSGKAPKLLLYAASGLESGVPSRFSGSGSGTDYTLTISSLQPEDFATYYCQQSYSMPLTFGGGTKVEIK |
| 3.73 | 4.5 | 1.55 | C4sh1B2 (antibody, V domains shown) VH: QMQLVQSGAEVKKPGASVKVSCKASGYTFTGYYIHWVRQAPGQGLEWMGWINPNSGGTIYAQKFQGRVTMTRDTSISTAYMELSRLRSDDTAVYYCARGSTNFDSWGQGTLVTVSS VL: QAGLTQPPSASGSPGQSVTISCTGTSSDVGGYNSVSWYQQHPGKAPKLMIYDVSNRPSGVSNRFSGSKSGNTASLTISGLQAEDEADYYCSSYINSGTLVFGGGTKLTVL |
| 83.8 | > 100 | 168 | C4R1B2 (antibody, V domains shown) VH: QVQLVQSGAEVKKPGASVKVSCKASGYGFTSYAIHWLRQAPGQRLEWMGWINPGNGNTKYSQKFQGRVTITRDTSATTAYMELTSLRSEDSDTAVYYCARDLDGGSFDHWGQGTLVTVSS VL: QSVVTQPASVSGSPGQSITISCTGTSSDVGSYNLVSWYQQHPGKAPKLMIYDVTNRPSGVSNRFSGSKSGNTASLTISGLQAEDEADYYCSSYTRSSTYVFGTGTKVTVL |
